Each block holds one molecule with its values, some of them ahead of it.
Columns and labels:
[1] = target: 4-1BB receptor on mouse T cells (mouse) (UniProt P20334); test: cell-based or functional assay
human CD40 receptor = human CD40 receptor (human, UniProt P25942 21-277); test: cell-based or functional assay
Sequence of human CD40 receptor (P25942 21-277): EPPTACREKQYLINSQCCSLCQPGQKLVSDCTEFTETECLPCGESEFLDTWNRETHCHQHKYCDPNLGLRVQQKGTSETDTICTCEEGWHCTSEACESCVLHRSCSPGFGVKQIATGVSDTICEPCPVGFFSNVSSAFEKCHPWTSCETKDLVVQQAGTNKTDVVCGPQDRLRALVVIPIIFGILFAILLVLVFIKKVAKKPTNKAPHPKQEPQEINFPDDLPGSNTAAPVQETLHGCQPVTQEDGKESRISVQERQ

Sequence of 4-1BB receptor on mouse T cells (mouse) (P20334 24-256): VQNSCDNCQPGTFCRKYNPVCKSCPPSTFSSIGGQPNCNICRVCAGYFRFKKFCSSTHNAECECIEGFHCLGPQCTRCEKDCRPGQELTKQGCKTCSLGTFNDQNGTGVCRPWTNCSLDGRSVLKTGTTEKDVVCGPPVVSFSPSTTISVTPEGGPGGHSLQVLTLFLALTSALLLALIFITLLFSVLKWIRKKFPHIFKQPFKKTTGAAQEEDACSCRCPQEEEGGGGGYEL

proliferation of CFSE-labeled CD4+CD25- (SP) T cells, percent dividing [1]: 60% | proliferation of SP T cells in co-culture with CD4+CD25+ (DP) Treg cells, percent dividing [1]: 34%
Molecule: CSA-4-1BBL fusion protein (ligand)

iNOS production, Western blot, IFN-γ primed CD40KO-human CD40 macrophages (human CD40 receptor): 6 fold
Molecule: commercially available trimeric recombinant human CD40L (rhsCD40L) (from UniProt P29965 116-261) (ligand)

IL-6 mRNA, RNAse protection assay, murine CD40KO macrophage line expressing human CD40 (human CD40 receptor): 2.8 fold | human IL-10 production (printed so; summed up as IL-1β) by human monocytes, ELISA, 18 h (human CD40 receptor): 5 fold | iNOS production, Western blot, IFN-γ primed CD40KO-human CD40 macrophages (human CD40 receptor): 9 fold
B1: CSA-hCD40L (fusion of core streptavidin and the extracellular domain of human CD40L) (ligand)
chain: RSHHHHHHITGTWYNQLGSTFIVTAGADGALTGTYESAVGNAESRYVLTGRYDSAPATDGSGTALGWTVAWKNNYRNAHSATTWSGQYVGGAEARINTQWLLTSGATEANAWKSTLVGHDTFTKVKPSAASSEFLDKIEDERNLHEDFVFMKTIQRCNTGERSLSLLNCEEIKSQFEGFVKDIMLNKEETKKENSFEMQKGDQNPQIAAHVISEASSKTTSVLQWAEKGYYTMSNNLVTLENGKQLTVKRQGLYYIYAQVTFCSNREASSQAPFIASLCLKSPGRFERILLRAANTHSSAKPCGQQSIHLGGVFELQPGASVFVNVTDPSQVSHGTGFTSFGLLKL
